Measured values taken from patent US20230158109A1, “USE OF CD83 IN COMBINATION THERAPIES” (Colmmune, Inc., priority 2006, published 2023).
“Also recorded” adds a separate entry of the source.

Tests used:
[1] = test system: mouse immunostimulatory dendritic cells and mouse T cells; experiment: Allogenic MLR assay with murine BM-DCs and T cells; type: cell-based
Protocol: C57/BL6 mice and BALB/C mice (male or female; Charles River, Wiga, Sulzfeld, Germany) were used at the ages of between 1 and 4 months. Generation of bone-marrow-derived dendritic cells (“BM-DCs”) was performed as described in Lutz et al. (1999) J. Immunol. Meth. 223: 77. RPMI 1640 (Life Technologies, Karlsruhe, Germany) was supplemented with 100 U/ml penicillin (Sigma), 100 μg/ml streptomycin (Sigma), 2 mM L-glutamine (Sigma), […] (Sigma), and 10% heat-inactivated filtered FCS (PAA, Colbe, Germany). GM-CSF was used at 200 U/ml (PrepoTech/Tebu, Rocky Hill, N.J.) on days 0, 3, 6 and 8 of the incubation period.
An allogenic MLR assay was performed as follows: CD4^+ and CD8^+ T cells were isolated from inguinal and […] lymph nodes of BALB/C mice and co-cultured (2×10^5 cells/well) for 3 days with BM-DCs (at different ratios) that had been processed through day 9 of the preparation protocol for BM-DCs. Culture was in 96-well culture dishes, and the media was 200 microliters RPMI 1640 supplemented with 100 U/ml penicillin, 100 µg/ml streptomycin, 2 mM L-glutamine, […], and 10% heat-inactivated filtered FCS. […] The culture supernatants were harvested onto glass fiber filters using an Inotech 1H-110 harvester (Inotech, Dottikon, Switzerland), and filters were counted in a Wallac 1450 microplate counter (Wallac, Turku, Finnland).

[2] = test system: B cells of transplant recipient; experiment: Ex vivo proliferation of transplant recipient B-cells; parameters: species or system mouse; conditions: C3H heart in C57BL/6; sCD83 100 μg daily i.p.; B cells day 8, stimulated with LPS
Protocol: Antibody Production Protocols for ex vivo Work: B cell proliferation: C57B1/6 mice were given a heterotopic cardiac allograft from a C3H mouse. Mice were then left untreated or were treated with a daily dose of 100 μg of sCD83 by intraperitoneal injection. Mice were then sacrificed on day 8, which was approximately the mean survival time of untreated mice. B-cells were then harvested from the mouse spleens and pure populations of 10^5 B-cells/well were cultured with 2 μg/mL of LPS to stimulate the cells (with no added sCD83). After 48 hours of culture, ^3H-thymidine was added, and after an additional 18-20 hours of culture, the cells were harvested and ^3H-thymidine incorporation was measured.
Eight days after transplantation (when the transplant would typically be rejected in untreated mice), the mice were sacrificed. B cells were purified from recipient mice, cultured, and stimulated with LPS. ^3H-thymidine incorporation was measured as counts per minute (cpm).

[3] = test system: donor-specific allo-antibody (IgM, IgG); experiment: Allo-antibody in transplant recipient sera (staining of donor splenocytes); type: in vivo, mouse; conditions: C3H heart in C57BL/6; sera eight days after transplantation
Protocol: In these experiments, sera were collected from transplant recipients (from control-treated, sCD83-treated and treatment-naïve individuals). Splenocytes were removed from the transplant donor(s) and incubated with the transplant recipient sera. The binding of antibodies from the allo-anti sera to the surface of the transplant donor splenocytes was monitored selectively using antibodies specific for the Fc-fragments of mouse IgM and IgG. […] Stained cells can be analyzed using FACS.
In the transplantation procedure, hearts were removed from C3H mice and transplanted into C57BL/6 mice, which were then either treated with sCD83 or left untreated. Sera were collected from the C57BL/6 transplant recipients eight days after transplantation (the approximate time when untreated mice would typically reject the transplant (i.e., show full tissue rejection)). This recipient sera was then used to stain splenocytes from the C3H donors, and allo-antibody binding was detected with FITC-conjugated antibodies specific to either the anti-IgG or anti-IgM Fc-fragment. […] Sera from untreated transplant recipients was also able to stain C3H-donor-derived splenocytes above control levels.

mDCs = experiment: TNF-α and activation markers in mDCs of PBMCs stimulated with LPS and IFN-γ; type: cell-based, cynomolgus monkeys; conditions: PBMCs incubated overnight with sCD83; LPS 1 μg/ml and IFN-γ 100 U/ml for 6 hours
Source text: We wished to examine the in vitro functional properties of human sCD83 on peripheral blood DCs, monocytes, and T cells. Mature DCs (“mDCs”) from cynomolgus monkeys were identified using FACS with four-color staining as cells that were HLA-DR positive, lineage negative (i.e. CD3, CD20, CD14, and CD16 negative), and CD11c positive. Intracellular TNF-α, IL-6, and surface markers CD83, CD80, CD86, and CCR5 (which are increased in activated, mature DCs) were also monitored.
To evaluate the effect of sCD83 on mDCs, isolated PBMCs (1×10^6 cells) from cynomolgus monkeys were incubated overnight with sCD83. Cells were stimulated with LPS (1 μg/ml) and IFN-γ (100 U/ml) for 6 hours. Intracellular TNF-α levels and surface markers were detected in mDCs using FACS. Results representative of one out of three experiments are shown in FIG. 11; results were expressed as % positive cells and mean fluorescence units (MFU).

monocytes = experiment: TNF-α and activation markers in monocytes of PBMCs; type: cell-based, cynomolgus monkeys; conditions: PBMCs incubated overnight with sCD83
Protocol: To evaluate the effect of sCD83 on monocytes, isolated PBMCs (1×10^6 cells) from cynomolgus monkeys were incubated overnight with sCD83 (1×10^6 cells). Intracellular TNF-α levels and surface markers were detected in monocytes using FACS. Results representative of one out of three experiments are shown in FIG. 12; results were expressed as % positive cells and mean fluorescence units (MFU).

CD4+ T cells = experiment: Regulatory T cell generation from purified CD4+ T cells; type: cell-based, cynomolgus monkeys; conditions: CD4+ T cells stimulated for 6 days
Source text: To evaluate the effect of sCD83 on CD4^+ T cells, these cells were purified from cynomolgus monkeys and then stimulated in the presence or absence of sCD83 or anti-CD28 mAb for 6 days. Cells were then stained to identify regulatory T cells (i.e., CD4^+CD25^+ Foxp3^+ cells) and analyzed by FACS.

[4] = test system: T cells stimulated with allogeneic mature dendritic cells; experiment: Regulatory T cell generation by sCD83-treated allogeneic dendritic cells; type: cell-based, cynomolgous monkeys; conditions: DCs treated with sCD83 50 μg/ml; different DC:T ratios
Protocol: Regulatory T cells were also prepared using dendritic cells prepared from cynomolgous monkeys, as follows. Cynomolgous monkey myeloid dendritic cells were generated from CD14^+ monocyte cells in the presence of GM-CSF and IL-4 for 7 days; soluble CD83 at 50 ug/ml was added to some cultures on days 3 through 7, and a maturation cocktail of IL-1(3, IL-6, TNF-α and PGE-2 was added on days 5 through 7. T cells (1×10^6/ml) were isolated by negative selection and stimulated at different ratios with the allogeneic mature dendritic cells that had been either treated or untreated with sCD83 (50 μg/ml). Cells were then stained to identify regulatory T cells (i.e. CD4^+CD25^+ Foxp3^+ cells) and analyzed by FACS.

B1: sCD83: recombinant extracellular domain of human CD83 cleaved from GST fusion, with four extra amino acids (Gly-Ser-Pro-Gly) at the amino terminal (protein, listed as Homo sapiens)
chain: GSPGTPEVKVACSEDVDLPCTAPWDPQVPYTVSWVKLLEGGEERMETPQEDHLRGQHYHQKGQNGSFDAPNERPYSLKIRNTTSCNSGTYRCTLQDPDGQRNLSGKVILRVTGCPAQRKEETFKKYRAE
modifications: printed: Gly-Ser-Pro-Gly; (1)..(125) Extracellular domain of human CD83
notes: recombinant extracellular domain of human CD83 cleaved from GST fusion, with four extra amino acids (Gly-Ser-Pro-Gly) at the amino terminal
For B1, the “Cluster formation between dendritic cells and T cells” value [1] was “inhibited”, the “Ability of murine immunostimulatory dendritic cells to stimulate T cells” value ([1]; [3H]-thymidine) was “inhibited in a concentration-dependent manner” and the “Ex vivo B-cell proliferation (3H-thymidine incorporation)” value [2] was “suppresses”. The “Allo-antibody activity (donor-specific binding of IgM or IgG)” value [3] was “low allo-antibody activity; also recorded: can prevent the induction of an allo-antibody response”, the “In vitro production of TNF-α by mDCs” value (mDCs) was “suppressed” and the “Surface expression of mDC activation markers CD83, CD86, CCR5, and CD80” value (mDCs) was “suppressed”. For the same molecule, the “In vitro production of TNF-α by monocytes” value (monocytes) was “moderately suppressed”, the “Surface expression of monocyte activation markers” value (monocytes) was “moderately suppressed” and the “Generation of regulatory T cells (CD4+CD25+ Foxp3+ cells)” value (CD4+ T cells) was “promoted the generation of regulatory T cells”. For the same molecule, the “Regulatory T cells generated by dendritic cells” value [4] was “increased numbers of regulatory T cells”.
